Test results taken from patent US20090099074A1, “MODULATING FOOD INTAKE” (CONJUCHEM BIOTECHNOLOGIES INC., priority 2007, published 2009).

Target: NPY Y1 receptor
Experiment: in vitro NPY Y1 receptor binding assay; tracer and cells not stated

Sequence of NPY Y1 receptor (P25929 whole entry): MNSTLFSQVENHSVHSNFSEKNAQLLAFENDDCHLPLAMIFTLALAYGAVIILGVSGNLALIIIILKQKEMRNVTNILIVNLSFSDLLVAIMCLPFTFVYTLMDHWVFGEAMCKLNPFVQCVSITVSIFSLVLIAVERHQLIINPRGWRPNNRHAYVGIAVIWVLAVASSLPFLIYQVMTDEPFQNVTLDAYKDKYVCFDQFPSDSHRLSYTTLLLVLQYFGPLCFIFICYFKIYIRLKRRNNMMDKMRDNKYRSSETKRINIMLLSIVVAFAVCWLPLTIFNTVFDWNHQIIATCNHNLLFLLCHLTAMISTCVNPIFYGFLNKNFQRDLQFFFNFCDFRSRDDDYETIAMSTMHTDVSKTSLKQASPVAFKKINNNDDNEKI

For “NPY(human, rat) control (from UniProt P01303 29-64) (peptide)”, the IC50 was 1.09 nM.
